Patent EP4617284A1 (Shanghai Novamab Biopharmaceuticals Co., Ltd., dated 2025)
Where “and” joins values, the source holds several entries; their conditions need not be identical. Identical values can stand only once. Blank lines part the entries; values can stand above or below the binder they belong to.

Tests used:
human serum albumin [1] = molecular target: T1, human serum albumin (human, UniProt P02768 25-609); assay: HSA binding activity, pH 5.5; method not described
T1 construct: also called HSA

human serum albumin [2] = molecular target: T1, human serum albumin; assay: HSA binding activity, pH 7.4; method not described
recombinant human IL-13 [3] = molecular target: T2, recombinant human IL-13 (human, UniProt P35225 35-146, limits assumed); assay: cell-based or functional assay
recombinant human IL-13 [4] = molecular target: T2, recombinant human IL-13; assay: cell-based or functional assay; remark: listed apart in the source
recombinant human IL-13 [5] = molecular target: T2, recombinant human IL-13; assay: cell-based or functional assay; remark: listed apart in the source

T2 sequence (P35225 35-146 limits assumed): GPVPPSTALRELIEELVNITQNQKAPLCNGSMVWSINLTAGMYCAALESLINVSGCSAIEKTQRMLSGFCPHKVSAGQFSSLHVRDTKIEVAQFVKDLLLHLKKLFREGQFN

B1: HuNb3-11 (VHH)
VHH: EVQLQESGGGLVEPGGSLRLSCVASGFTFQHYAMSWVRQAPGKGLEWVSSISMVGGGTSYADSVKGRFTMSRDNAKNTLYLQLNSLKSEDTAMYYCVRGWHPDVPRPLGQGTLVTVSS
notes: also called HSA HuNb3-11; Control antibody 3
- EC50 (human serum albumin [1]): 0.164 µg/mL
- EC50 (human serum albumin [2]): 0.11 µg/mL

B2: MY9286 (VHH)
VHH: EVQLLESGGGLVQPGGSLRLSCAASGFTFSDYTMTWVRQAPGKGLEWVSTVNPDGDSTFYRDSVKGRFTISRDNAKNTLYLQLSSLKTEDTAMYYCTKASLITWPQSPRGQGTLVTVSS
- Humanized nanobody IC50 (µg/mL), HEK-Blue IL-4/IL-13 cells (recombinant human IL-13 [3]): 3.42 µg/mL

B3: Lebrikizumab (antibody, V domains shown)
VH: QVTLRESGPALVKPTQTLTLTCTVSGFSLSAYSVNWIRQPPGKALEWLAMIWGDGKIVYNSALKSRLTISKDTSKNQVVLTMTNMDPVDTATYYCAGDGYYPYAMDNWGQGSLVTVSS
VL: DIVMTQSPDSLSVSLGERATINCRASKSVDSYGNSFMHWYQQKPGQPPKLLIYLASNLESGVPDRFSGSGSGTDFTLTISSLQAEDVAVYYCQQNNEDPRTFGGGTKVEIKR
- Control antibody 2 IC50 (µg/mL), HEK-Blue IL-4/IL-13 cells (recombinant human IL-13 [4]): 0.0043 µg/mL and 0.0041 µg/mL and 0.004 µg/mL
- IL-13 functional activity IC50 (recombinant human IL-13 [5]): 0.0076 µg/mL

B5: MY9293 (VHH)
VHH: EVQLLESGGGLVQPGESLRLSCEVSGHTHTNYCMGWFRQAPGKGLEGVAAIDTDGSTTYADSVKGRFTISKDNAKNTLYLQMNSLKPEDTAMYYCMAEDFRDEYAPEPRLSSGGYCSIGYGMDYWGKGTLVTVSS
- Humanized nanobody IC50 (µg/mL), HEK-Blue IL-4/IL-13 cells (recombinant human IL-13 [3]): 1.05 µg/mL

B7: MY9217 (bispecific antibody)
chain: EVQLLESGGGLVQPGGSLRLSCAASGFTFSDYTMTWVRQAPGKGLEWVSTVNPDGDSTFYRDSVKGRFTISRDNAKNTLYLQLSSLKTEDTAMYYCTKASLITWPQSPRGQGTLVTVSSGGGGSGGGGSGGGGSGGGGSEVQLQESGGGLVEPGGSLRLSCVASGFTFQHYAMSWVRQAPGKGLEWVSSISMVGGGTSYADSVKGRFTMSRDNAKNTLYLQLNSLKSEDTAMYYCVRGWHPDVPRPLGQGTLVTVSSGGGGSGGGGSGGGGSGGGGSEVQLLESGGGLVQPGESLRLSCEVSGHTHTNYCMGWFRQAPGKGLEGVAAIDTDGSTTYADSVKGRFTISKDNAKNTLYLQMNSLKPEDTAMYYCMAEDFRDEYAPEPRLSSGGYCSIGYGMDYWGKGTLVTVSSA
notes: Trivalent long-acting nanobody: two anti-IL-13 VHH and one anti-HSA VHH in one chain; also called MY9286-GS20-HSA HuNb3-11-GS20-MY9293
- IL-13 functional activity IC50 (recombinant human IL-13 [5]): 0.0029 µg/mL
- EC50 (human serum albumin [1]): 0.0953 µg/mL
- EC50 (human serum albumin [2]): 0.0648 µg/mL

B10: MY9219 (bispecific antibody)
chain: EVQLQESGGGLVEPGGSLRLSCVASGFTFQHYAMSWVRQAPGKGLEWVSSISMVGGGTSYADSVKGRFTMSRDNAKNTLYLQLNSLKSEDTAMYYCVRGWHPDVPRPLGQGTLVTVSSGGGGSGGGGSGGGGSGGGGSEVQLLESGGGLVQPGGSLRLSCAASGFTFSDYTMTWVRQAPGKGLEWVSTVNPDGDSTFYRDSVKGRFTISRDNAKNTLYLQLSSLKTEDTAMYYCTKASLITWPQSPRGQGTLVTVSSGGGGSGGGGSGGGGSGGGGSEVQLLESGGGLVQPGESLRLSCEVSGHTHTNYCMGWFRQAPGKGLEGVAAIDTDGSTTYADSVKGRFTISKDNAKNTLYLQMNSLKPEDTAMYYCMAEDFRDEYAPEPRLSSGGYCSIGYGMDYWGKGTLVTVSSA
notes: Trivalent long-acting nanobody: two anti-IL-13 VHH and one anti-HSA VHH in one chain; also called HSA HuNb3-11-MY9286-GS20-MY9293-GS20
- IL-13 functional activity IC50 (recombinant human IL-13 [5]): 0.0024 µg/mL
- EC50 (human serum albumin [1]): 0.0648 µg/mL
- EC50 (human serum albumin [2]): 0.0467 µg/mL

The next lines start with the values.

- Activity IC50 (µg/mL), HEK-Blue IL-4/IL-13 cells (recombinant human IL-13 [4]): 0.0029 µg/mL
B4: MY9464 (VHH)
chain: EVQLLESGGGLVQPGESLRLSCEVSGHTHTNYCMGWFRQAPGKGLEGVAAIDTDGSTTYADSVKGRFTISKDNAKNTLYLQMNSLKPEDTAMYYCMAEDFRDEYAPEPRLSSGGYCSIGYGMDYWGKGTLVTVSSGGGGSGGGGSGGGGSGGGGSEVQLLESGGGLVQPGGSLRLSCAASGFTFSDYTMTWVRQAPGKGLEWVSTVNPDGDSTFYRDSVKGRFTISRDNAKNTLYLQLSSLKTEDTAMYYCTKASLITWPQSPRGQGTLVTVSS

- Activity IC50 (µg/mL), HEK-Blue IL-4/IL-13 cells (recombinant human IL-13 [4]): 0.0038 µg/mL
B6: MY9466 (VHH)
VHH: B5 VHH

- Activity IC50 (µg/mL), HEK-Blue IL-4/IL-13 cells (recombinant human IL-13 [4]): 1.75 µg/mL
B8: MY9470 (VHH)
chain: EVQLLESGGGLVQPGESLRLSCEVSGHTHTNYCMGWFRQAPGKGLEGVAAIDTDGSTTYADSVKGRFTISKDNAKNTLYLQMNSLKPEDTAMYYCMAEDFRDEYAPEPRLSSGGYCSIGYGMDYWGKGTLVTVSSGGGGSGGGGSGGGGSGGGGSEVQLLESGGGLVQPGESLRLSCEVSGHTHTNYCMGWFRQAPGKGLEGVAAIDTDGSTTYADSVKGRFTISKDNAKNTLYLQMNSLKPEDTAMYYCMAEDFRDEYAPEPRLSSGGYCSIGYGMDYWGKGTLVTVSS

- Activity IC50 (µg/mL), HEK-Blue IL-4/IL-13 cells (recombinant human IL-13 [4]): 0.0014 µg/mL
B9: MY9431 (VHH)
chain: EVQLLESGGGLVQPGGSLRLSCAASGFTFSDYTMTWVRQAPGKGLEWVSTVNPDGDSTFYRDSVKGRFTISRDNAKNTLYLQLSSLKTEDTAMYYCTKASLITWPQSPRGQGTLVTVSSGGGGSGGGGSGGGGSGGGGSEVQLLESGGGLVQPGESLRLSCEVSGHTHTNYCMGWFRQAPGKGLEGVAAIDTDGSTTYADSVKGRFTISKDNAKNTLYLQMNSLKPEDTAMYYCMAEDFRDEYAPEPRLSSGGYCSIGYGMDYWGKGTLVTVSS
